According to article PMC7570257 (Biochemistry, 2015):

B1: EGFP-tagged tPRMT8 (domain or fragment, human, UniProt Q9NR22 61-394, looked up)
chain: MSKLLNPEEMTSRDYYFDSYAHFGIHEEMLKDEVRTLTYRNSMYHNKHVFKDKVVLDVGSGTGILSMFAAKAGAKKVFGIECSSISDYSEKIIKANHLDNIITIFKGKVEEVELPVEKVDIIISEWMGYCLFYESMLNTVIFARDKWLKPGGLMFPDRAALYVVAIEDRQYKDFKIHWWENVYGFDMTCIRDVAMKEPLVDIVDPKQVVTNACLIKEVDIYTVKTEELSFTSAFCLQIQRNDYVHALVTYFNIEFTKCHKKMGFSTAPDAPYTHWKQTVFYLEDYLTVRRGEEIYGTISMKPNAKNVRDLDFTVDLDFKGQLCETSVSNDYKMR
B2: chimera tPRMT8C (β15 of tPRMT8 replaced with that of Hmt1) (domain or fragment, human | yeast)
chain: MSKLLNPEEMTSRDYYFDSYAHFGIHEEMLKDEVRTLTYRNSMYHNKHVFKDKVVLDVGSGTGILSMFAAKAGAKKVFGIECSSISDYSEKIIKANHLDNIITIFKGKVEEVELPVEKVDIIISEWMGYCLFYESMLNTVIFARDKWLKPGGLMFPDRAALYVVAIEDRQYKDFKIHWWENVYGFDMTCIRDVAMKEPLVDIVDPKQVVTNACLIKEVDIYTVKTEELSFTSAFCLQIQRNDYVHALVTYFNIEFTKCHKKMGFSTAPDAPYTHWKQTVFYLEDYLTVRRGEEIYGTISMKPNAKNVRDLDFTVDLDFKIDGNSRSRKNEGSYLMH

How the values were obtained:
native gel or EMSA = molecular target: the molecule itself; assay: native gel or EMSA
AUC = molecular target: the molecule itself; assay: AUC

Row | Protein | stoichiometry N (native gel or EMSA) | stoichiometry N (AUC)
1 | B1 | 4 | –
2 | B2 | – | 4
